# According to patent US20020045591A1, “Methods and therapeutic compositions for treating cancer” (priority 1998, published 2002):
# T1: LEF-1-β-catenin complex (Mus musculus, UniProt Q02248)
# T1 construct: expressed in transfected cells; host or cells: CHO cells, transient transfection
# T1 sequence (Q02248 1-781): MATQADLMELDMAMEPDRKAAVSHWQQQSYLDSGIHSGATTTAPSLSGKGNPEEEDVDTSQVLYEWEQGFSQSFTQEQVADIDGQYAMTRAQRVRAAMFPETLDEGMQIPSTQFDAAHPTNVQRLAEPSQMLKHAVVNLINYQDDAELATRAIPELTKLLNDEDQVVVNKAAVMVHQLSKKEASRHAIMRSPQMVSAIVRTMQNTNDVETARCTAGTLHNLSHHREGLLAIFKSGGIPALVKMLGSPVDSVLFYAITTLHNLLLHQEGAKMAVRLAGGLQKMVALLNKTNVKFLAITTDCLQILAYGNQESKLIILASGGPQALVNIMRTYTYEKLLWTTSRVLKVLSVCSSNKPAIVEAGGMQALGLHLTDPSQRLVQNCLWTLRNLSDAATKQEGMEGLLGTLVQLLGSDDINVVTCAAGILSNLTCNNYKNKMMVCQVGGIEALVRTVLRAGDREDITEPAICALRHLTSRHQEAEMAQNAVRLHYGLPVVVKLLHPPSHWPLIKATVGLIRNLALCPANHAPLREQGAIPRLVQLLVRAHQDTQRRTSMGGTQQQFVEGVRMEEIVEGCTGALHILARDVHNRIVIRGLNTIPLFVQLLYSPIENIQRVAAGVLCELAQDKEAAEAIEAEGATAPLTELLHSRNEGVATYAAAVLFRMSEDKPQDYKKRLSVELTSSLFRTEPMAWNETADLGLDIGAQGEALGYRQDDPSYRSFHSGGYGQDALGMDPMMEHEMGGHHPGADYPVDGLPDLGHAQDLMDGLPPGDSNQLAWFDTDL
# Key:
# [1] = molecular target: T1, LEF-1-β-catenin complex; assay: Competition with LEF-1 for β-catenin binding (HA-LEF-1 immunoprecipitation, CHO cells); details: increasing amounts of N-cadherin tail cDNA, FIG. 8
# Text: Immunoblotting and immunoprecipitation: The following antibodies were used: polyclonal pan-cadherin or monoclonal anti cadherin (CH-19) and polyclonal anti β-catenin antibodies were from Sigma (Holon, Israel). Monoclonal anti β-catenin, 5H10 (from M. Wheelock), anti IL2Rα (from UBI), anti flag (M2, from IBI), anti HA (clone 12CA5, from Boehringer Mannheim, Germany), anti GFP (polyclonal, from Clontech, Palo Alto, Calif.), anti LEF-1 (polyclonal, kindly provided by Dr. R. Grosschedl). Secondary antibodies for Western blotting were goat anti rabbit or anti mouse conjugated to HRP (Amersham, Buckinghampshire, UK), and for immunofluorescence analysis the secondary antibodies were FITC-goat anti mouse (Cappel, USA) or rhodamine-anti rabbit antibodies (from Jackson Immuno-Research, West Grove, Pa.). […]
# The N-cadherin tail inhibits the formation of a LEF-1-β-catenin complex: The inhibition by N-cadherin of β-catenin driven-transactivation could result from either displacement of LEF-1 binding to β-catenin by N-cadherin, or by formation of a ternary complex (cadherin-LEF-1-β-catenin) that has no transactivation potential. […] After transfection, LEF-1 was immunoprecipitated with anti HA antibody and the associated β-catenin was detected by Western blot analysis (FIG. 8A). […]
# [2] = tested on: SW480 cells; assay: Immunofluorescence localization in SW480 cells (Example 1); type: cell-based, human; details: transfected SW480 cells, FIG. 6B
# Text: Immunofluorescence microscopy: Cells cultured on glass coverslips were fixed with 3% paraformaldehyde in phosphate-buffered saline (PBS) and permeabilized with 0.5% Triton X-100. CHO cells were immunofluorescently labeled as described (Levenberg S. et al. (1998) Long-range and selective autoregulation of cell-cell and cell-matrix adhesions by cadherin or integrin ligands. J. Cell Sci. 111:347-357). Nuclei were visualized using DAPI and the fluorescence was examined using a Zeiss Axiophot microscope and a x100/1.3 Planapochromat objective.
molecule,measurement,setting,value
"N-cadherin tail: Cytoplasmic domain of chicken N-cadherin tagged with a Flag epitope (protein, left off: small tags and cut ends) MKRRDKERQAKQLLIDPEDDVRDNILKYDEEGGGEEDQDYDLSQLQQPDTVEPDAIKPVGIRRLDERPIHAEPQYPVRSAAPHPGDIGDFINEGLKAADNDPTAPPYDSLLVFDYEGSGSTAGSLSSLNSSSSGGEQDYDYLNDWGPRFKKLADMYGGGDD",β-catenin binding to LEF-1,[1],inhibited β-catenin binding to LEF-1 in a dose dependent manner
same,subcellular localization of β-catenin,[2],colocalized with β-catenin in the nucleus
